Test results published in patent US20260139032A1.

Molecular target: T1, BMP-9 (UniProt Q9UK05)
T1 sequence (looked up): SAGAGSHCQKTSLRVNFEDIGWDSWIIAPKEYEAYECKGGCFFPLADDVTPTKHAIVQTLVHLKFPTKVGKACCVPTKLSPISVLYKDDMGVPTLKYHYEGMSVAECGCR
Test: cell-based or functional assay

With “P1198 (hActRIIB L33Q F58E, 3 aa GGG linker, IgG1-DL Fc) (Fc fusion)” as the substance, how does the BMP-9 IC50 (nM), BMP-reporter HepG2 cell-based assay read?
Its BMP-9 IC50 (nM), BMP-reporter HepG2 cell-based assay is 667 nM.

What about the fold decrease of inhibition potency on BMP-9, BMP-reporter HepG2 assay of the same substance?
Its fold decrease of inhibition potency on BMP-9, BMP-reporter HepG2 assay is greater than 100 fold.

How did the BMP-9 IC50 (nM), BMP-reporter HepG2 cell-based assay turn out when “P1193 (hActRIIB L33Y F58E, 10 aa linker, IgG1-DL Fc) (Fc fusion)” was run?
The BMP-9 IC50 (nM), BMP-reporter HepG2 cell-based assay was 485 nM.

What about the fold decrease of inhibition potency on BMP-9, BMP-reporter HepG2 assay of the same substance?
Its fold decrease of inhibition potency on BMP-9, BMP-reporter HepG2 assay is greater than 100 fold.
